Data on 2 molecules can be found in PMC6426937.

The assay has as its target Hsp82p (Saccharomyces cerevisiae Hsp90), N terminal 6xHis tag (Saccharomyces cerevisiae) (UniProt P02829).

Chain of Hsp82p (Saccharomyces cerevisiae Hsp90), N terminal 6xHis tag (Saccharomyces cerevisiae) (P02829 whole entry): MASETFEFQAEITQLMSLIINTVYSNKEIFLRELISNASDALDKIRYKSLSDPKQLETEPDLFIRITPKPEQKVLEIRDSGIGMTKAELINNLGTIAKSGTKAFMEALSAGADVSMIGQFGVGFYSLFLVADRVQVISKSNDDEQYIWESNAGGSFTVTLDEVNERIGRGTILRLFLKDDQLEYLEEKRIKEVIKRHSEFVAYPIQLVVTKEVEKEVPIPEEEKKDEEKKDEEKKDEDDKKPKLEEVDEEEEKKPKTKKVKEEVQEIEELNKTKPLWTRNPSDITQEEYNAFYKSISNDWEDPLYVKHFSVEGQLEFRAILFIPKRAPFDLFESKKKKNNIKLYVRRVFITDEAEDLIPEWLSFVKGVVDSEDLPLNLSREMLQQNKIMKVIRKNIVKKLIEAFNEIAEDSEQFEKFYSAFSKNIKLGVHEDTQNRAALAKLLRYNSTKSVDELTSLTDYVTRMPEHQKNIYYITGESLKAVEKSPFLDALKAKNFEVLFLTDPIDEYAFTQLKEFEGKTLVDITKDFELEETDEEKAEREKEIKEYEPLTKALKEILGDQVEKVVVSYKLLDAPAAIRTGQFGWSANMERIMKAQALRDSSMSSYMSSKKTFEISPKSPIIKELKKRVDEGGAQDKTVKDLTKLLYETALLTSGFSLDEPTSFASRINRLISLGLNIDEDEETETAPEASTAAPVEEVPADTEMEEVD

B1: Aha1p^Δ11, C terminal 6xHis tag (domain or fragment)
chain: VDKNCIGWAKEYFKQKLVGVEAGSVKDKKYAKIKSVSSIEGDCEVNQRKGKVISLFDLKITVLIEGHVDSKDGSALPFEGSINVPEVAFDSEASSYQFDISIFKETSELSEAKPLIRSELLPKLRQIFQQFGKDLLATHGNDIQVPESQVKSNYTRGNQKSSFTEIKDSASKPKKNALPSSTSTSAPVSSTNKVPQNGSGNSTSIYLEPTFNVPSSELYETFLDKQRILAWTRSAQFFNSGPKLETKEKFELFGGNVISELVSCEKDKKLVFHWKLKDWSAPFNSTIEMTFHESQEFHETKLQVKWTGIPVGEEDRVRANFEEYYVRSIKLTFGFGAVL
Take B1: the apparent affinity (Kapp) from stimulation of the Hsp82p ATPase activity by increasing co-chaperone (1 µM Hsp82p, 2 mM ATP, ATP regenerating system) turned out to be 0.44 µM.

B2: Aha1p, C terminal 6xHis tag (natural protein)
chain: MVVNNPNNWHWVDKNCIGWAKEYFKQKLVGVEAGSVKDKKYAKIKSVSSIEGDCEVNQRKGKVISLFDLKITVLIEGHVDSKDGSALPFEGSINVPEVAFDSEASSYQFDISIFKETSELSEAKPLIRSELLPKLRQIFQQFGKDLLATHGNDIQVPESQVKSNYTRGNQKSSFTEIKDSASKPKKNALPSSTSTSAPVSSTNKVPQNGSGNSTSIYLEPTFNVPSSELYETFLDKQRILAWTRSAQFFNSGPKLETKEKFELFGGNVISELVSCEKDKKLVFHWKLKDWSAPFNSTIEMTFHESQEFHETKLQVKWTGIPVGEEDRVRANFEEYYVRSIKLTFGFGAVL
Turning to B2, the apparent affinity (Kapp) from stimulation of the Hsp82p ATPase activity by increasing co-chaperone (1 µM Hsp82p, 2 mM ATP, ATP regenerating system) was found to be 1.24 µM.
